The values that follow come from article PMC3433420.

Several values for one entry are separate records, joined by “and”; a condition that tells them apart may be missing. Equal values may be shown once. Read-outs that look alike come from different tables or passages of the source.

One test deals with HSH2D SH2 domain (human) (UniProt Q96JZ2). Nature of the test: peptide or protein array; SH2/PTB proteins spotted on aldehyde slides, rhodamine peptide titrated in buffer B (20 mM HEPES, 100 mM KCl, 0.1% Tween-20, 5 mM DTT, pH 7.8), 1 h at room temperature; replicate assays.
Sequence of HSH2D SH2 domain (human) (Q96JZ2 34-125): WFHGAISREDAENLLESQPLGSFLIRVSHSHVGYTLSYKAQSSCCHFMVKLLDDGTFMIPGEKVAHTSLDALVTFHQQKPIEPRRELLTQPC
A further test deals with NCK2 SH2 domain (human) (UniProt O43639). Described as above.
Sequence of NCK2 SH2 domain (human) (O43639 285-380): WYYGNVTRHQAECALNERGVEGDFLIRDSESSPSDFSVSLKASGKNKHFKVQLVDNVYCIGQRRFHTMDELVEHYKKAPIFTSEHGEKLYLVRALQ
The target of the next test is SHF SH2 domain (human) (UniProt Q7M4L6). The test is described as above.
Sequence of SHF SH2 domain (human) (Q7M4L6 323-418): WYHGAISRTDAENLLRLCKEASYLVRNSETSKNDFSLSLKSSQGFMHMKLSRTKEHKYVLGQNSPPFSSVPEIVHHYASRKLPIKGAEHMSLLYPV
A further test deals with VAV2 SH2 domain (human) (UniProt P52735). The test is described as above.
Sequence of VAV2 SH2 domain (human) (P52735 673-767): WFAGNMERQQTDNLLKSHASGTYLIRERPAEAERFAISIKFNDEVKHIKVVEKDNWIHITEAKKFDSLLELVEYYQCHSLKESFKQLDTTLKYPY
The target of test [1] is RASA1 N-terminal SH2 domain (human) (UniProt P20936). The description is as above.
The target of a further test is ABL2 SH2 domain (human) (UniProt P42684). The description is as above.
Sequence of ABL2 SH2 domain (human) (P42684 173-263): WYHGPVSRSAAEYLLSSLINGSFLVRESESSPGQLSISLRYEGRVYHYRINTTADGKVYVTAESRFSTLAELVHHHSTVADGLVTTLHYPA
The next test deals with SRC SH2 domain (human) (UniProt P12931). The test is described as above.
Test [2] concerns the target PIK3R1 tandem SH2 domains (human) (UniProt P27986). The description is as above.
The target of test [3] is RASA1 tandem SH2 domains (human). The test is described as above.
Test [4] concerns the target SH2D3A SH2 domain (human) (UniProt Q9BRG2). Described as above.
Test [5] concerns the target PLCG1 C-terminal SH2 domain (human). The test is described as above.
Test [6] concerns the target PIK3R2 tandem SH2 domains (human) (UniProt O00459). Described as above.
For test [7], the target named is PLCG2 tandem SH2 domains (human). The test is described as above.
A further test concerns the target ITK SH2 domain (human) (UniProt Q08881). The description is as above.
The target in test [8] is SH2D1A SH2 domain (human) (UniProt O60880). Described as above.
Sequence of SH2D1A SH2 domain (human) (O60880 6-104): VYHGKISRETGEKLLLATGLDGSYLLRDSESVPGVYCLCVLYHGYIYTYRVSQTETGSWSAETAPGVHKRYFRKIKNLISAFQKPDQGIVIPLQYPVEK
Test [9] concerns the target PIK3R3 tandem SH2 domains (human). The description is as above.
Test [10] deals with ErbB3-pY1197 phosphopeptide, rhodamine-labelled (human). Nature of the test: fluorescence polarisation; saturation binding in solution; rhodamine-labeled peptide fixed at 10 nM, protein titrated 0.002-10 µM (twelve two-fold dilutions); 20 minutes at room temperature in the dark; assay buffer 20 mM HEPES, 100 mM KCl, 0.1% Tween-20, 5 mM DTT, pH 7.8; apparent KD; assay detection threshold of 20 µM. (In general: Fluorescence polarisation rises when a labelled molecule tumbles more slowly, as on binding a larger partner.)

Test [11] addresses ErbB3-pY1260 phosphopeptide, rhodamine-labelled (human). Described as above.
Test [12] concerns the target SHC1-PTB (Homo sapiens) (UniProt P29353). As to conditions: cited from earlier work.
In the next test the target is SYK-N (Homo sapiens) (UniProt P43405). As to conditions: cited from earlier work.
The next test deals with SHC1 (Homo sapiens) (UniProt P29353). As to conditions: cited from earlier work.
Sequence of SHC1 (Homo sapiens) (P29353 483-583): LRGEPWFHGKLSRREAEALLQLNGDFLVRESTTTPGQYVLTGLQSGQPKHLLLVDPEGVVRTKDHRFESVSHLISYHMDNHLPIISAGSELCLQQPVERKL
For the next test, the target named is BLK (Homo sapiens) (UniProt P51451). As to conditions: cited from earlier work.
Sequence of BLK (Homo sapiens) (P51451 119-225): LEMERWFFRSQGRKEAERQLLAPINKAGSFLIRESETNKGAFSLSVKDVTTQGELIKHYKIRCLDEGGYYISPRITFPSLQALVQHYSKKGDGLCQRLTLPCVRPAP
A further test has as its target GRB2 (Homo sapiens) (UniProt P62993). As to conditions: cited from earlier work.
In another test the target is LYN (Homo sapiens) (UniProt P07948). As to conditions: cited from earlier work.
Sequence of LYN (Homo sapiens) (P07948 124-231): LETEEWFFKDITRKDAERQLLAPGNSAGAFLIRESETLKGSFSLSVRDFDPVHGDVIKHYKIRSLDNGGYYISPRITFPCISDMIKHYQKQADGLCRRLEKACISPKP
The target in the next test is YES1 (Homo sapiens) (UniProt P07947). As to conditions: cited from earlier work.
Sequence of YES1 (Homo sapiens) (P07947 153-260): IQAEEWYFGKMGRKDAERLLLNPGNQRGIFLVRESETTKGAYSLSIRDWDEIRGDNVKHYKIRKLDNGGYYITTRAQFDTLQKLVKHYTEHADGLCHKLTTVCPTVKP
The target of a further test is ABL2 (Homo sapiens) (UniProt P42684). As to conditions: cited from earlier work.
A further test concerns the target GRB7 (Homo sapiens) (UniProt Q14451). As to conditions: cited from earlier work.
The next test has as its target RASA1-N (Homo sapiens) (UniProt P20936). As to conditions: cited from earlier work.
The target in a further test is PIK3R2-N (Homo sapiens) (UniProt O00459). As to conditions: cited from earlier work.
Sequence of PIK3R2-N (Homo sapiens) (O00459 325-721): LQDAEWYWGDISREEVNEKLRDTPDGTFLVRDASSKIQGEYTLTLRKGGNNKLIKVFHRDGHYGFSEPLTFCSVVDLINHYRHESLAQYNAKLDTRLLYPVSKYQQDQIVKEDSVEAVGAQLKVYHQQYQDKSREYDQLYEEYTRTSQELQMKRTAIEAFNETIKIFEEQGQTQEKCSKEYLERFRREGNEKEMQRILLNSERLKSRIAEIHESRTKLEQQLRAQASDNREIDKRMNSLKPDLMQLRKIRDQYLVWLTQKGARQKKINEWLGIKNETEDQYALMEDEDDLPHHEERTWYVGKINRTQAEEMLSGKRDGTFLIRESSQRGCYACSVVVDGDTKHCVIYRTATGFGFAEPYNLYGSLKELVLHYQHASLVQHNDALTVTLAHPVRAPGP
The target of another test is ITK (Homo sapiens) (UniProt Q08881). As to conditions: cited from earlier work.
Test [13] addresses PIK3R3-NC (Homo sapiens) (UniProt Q92569). As to conditions: cited from earlier work.
For test [14] the target is unchanged. As to conditions: cited from earlier work. The source holds these as a separate data set.
The target in the next test is PIK3R1-NC (Homo sapiens) (UniProt P27986). As to conditions: cited from earlier work.
Sequence of PIK3R1-NC (Homo sapiens) (P27986 328-723): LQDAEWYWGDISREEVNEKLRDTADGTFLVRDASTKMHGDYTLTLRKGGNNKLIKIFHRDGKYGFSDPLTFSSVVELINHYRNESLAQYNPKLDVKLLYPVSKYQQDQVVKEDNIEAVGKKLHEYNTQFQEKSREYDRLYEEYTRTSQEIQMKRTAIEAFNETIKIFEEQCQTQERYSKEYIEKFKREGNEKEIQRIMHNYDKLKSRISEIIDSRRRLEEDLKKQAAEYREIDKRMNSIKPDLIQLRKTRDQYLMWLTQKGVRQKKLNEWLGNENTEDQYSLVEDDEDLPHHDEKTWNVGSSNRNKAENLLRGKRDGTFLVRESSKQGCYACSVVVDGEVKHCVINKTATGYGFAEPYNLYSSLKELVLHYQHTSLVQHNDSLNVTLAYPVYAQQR
For a further test, the target named is FGR (Homo sapiens) (UniProt P09769). As to conditions: cited from earlier work.
In a further test the target is SRC (Homo sapiens) (UniProt P12931). As to conditions: cited from earlier work.
Another test concerns the target SHC3 (Homo sapiens) (UniProt Q92529). As to conditions: cited from earlier work.
For test [15], the target named is SHC1-PTB (Homo sapiens) (UniProt P29353). As to conditions: cited from earlier work. This is another data set of the same source.
Sequence of SHC1-PTB (Homo sapiens) (P29353 483-583): as the sequence (P29353 483-583) above
In another test the target is PLCG2-NC (Homo sapiens) (UniProt P16885). As to conditions: cited from earlier work.
A further test addresses RASA1-NC (Homo sapiens) (UniProt P20936). As to conditions: cited from earlier work.
The next test has as its target TEC (Homo sapiens) (UniProt P42680). As to conditions: cited from earlier work.
The next test has as its target CRK (Homo sapiens) (UniProt P46108). As to conditions: cited from earlier work.
The target in a further test is CRKL (Homo sapiens) (UniProt P46109). As to conditions: cited from earlier work.
Sequence of CRKL (Homo sapiens) (P46109 9-107): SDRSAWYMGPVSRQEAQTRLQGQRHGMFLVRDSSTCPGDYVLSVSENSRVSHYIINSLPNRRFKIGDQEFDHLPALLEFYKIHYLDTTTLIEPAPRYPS
The next test deals with PIK3R1-N (Homo sapiens) (UniProt P27986). As to conditions: cited from earlier work.
Sequence of PIK3R1-N (Homo sapiens) (P27986 328-723): as the sequence (P27986 328-723) above
A further test concerns the target SYK-NC (Homo sapiens) (UniProt P43405). As to conditions: cited from earlier work.

Sequence of PIK3R1 tandem SH2 domains (human) (P27986 whole entry, the tested form may be a part): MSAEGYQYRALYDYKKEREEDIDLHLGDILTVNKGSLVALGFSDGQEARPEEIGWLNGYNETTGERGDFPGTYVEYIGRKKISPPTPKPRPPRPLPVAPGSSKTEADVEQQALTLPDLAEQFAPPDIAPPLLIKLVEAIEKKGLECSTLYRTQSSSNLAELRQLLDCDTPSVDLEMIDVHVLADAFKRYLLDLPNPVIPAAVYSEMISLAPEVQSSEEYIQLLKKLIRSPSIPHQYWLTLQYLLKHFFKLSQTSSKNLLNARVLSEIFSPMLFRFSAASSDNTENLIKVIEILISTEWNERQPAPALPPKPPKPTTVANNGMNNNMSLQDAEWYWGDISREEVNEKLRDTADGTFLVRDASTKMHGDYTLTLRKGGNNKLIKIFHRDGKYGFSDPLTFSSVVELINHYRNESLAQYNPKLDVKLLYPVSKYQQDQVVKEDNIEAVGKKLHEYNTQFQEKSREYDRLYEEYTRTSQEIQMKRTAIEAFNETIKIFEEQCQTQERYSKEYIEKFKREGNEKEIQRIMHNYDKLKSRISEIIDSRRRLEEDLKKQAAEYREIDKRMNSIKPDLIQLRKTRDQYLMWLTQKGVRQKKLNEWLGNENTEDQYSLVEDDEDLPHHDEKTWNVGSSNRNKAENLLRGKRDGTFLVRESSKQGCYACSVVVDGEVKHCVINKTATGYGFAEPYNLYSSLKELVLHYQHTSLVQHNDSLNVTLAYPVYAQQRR
Sequence of GRB7 SH2 domain (Q14451 431-527): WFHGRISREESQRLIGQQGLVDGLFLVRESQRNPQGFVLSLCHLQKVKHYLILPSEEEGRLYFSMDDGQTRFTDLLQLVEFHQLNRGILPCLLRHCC
Sequence of ITK SH2 domain (human) (Q08881 239-338): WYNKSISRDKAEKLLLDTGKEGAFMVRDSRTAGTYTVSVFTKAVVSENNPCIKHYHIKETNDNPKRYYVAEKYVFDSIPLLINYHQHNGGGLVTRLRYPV
Sequence of SH2D3A SH2 domain (human) (Q9BRG2 15-114): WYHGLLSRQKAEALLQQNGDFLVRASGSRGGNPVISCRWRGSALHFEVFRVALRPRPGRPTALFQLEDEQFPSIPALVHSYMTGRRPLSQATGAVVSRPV
Sequence of TEC (Homo sapiens) (P42680 242-350): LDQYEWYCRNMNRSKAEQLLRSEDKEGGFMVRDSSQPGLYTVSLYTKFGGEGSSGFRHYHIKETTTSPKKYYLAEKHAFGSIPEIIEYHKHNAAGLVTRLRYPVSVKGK
Sequence of GRB2 (Homo sapiens) (P62993 55-157): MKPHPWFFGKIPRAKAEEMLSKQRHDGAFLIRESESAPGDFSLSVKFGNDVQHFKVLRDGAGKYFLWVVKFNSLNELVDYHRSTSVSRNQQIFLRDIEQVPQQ
Sequence of RASA1-N (Homo sapiens) (P20936 176-446): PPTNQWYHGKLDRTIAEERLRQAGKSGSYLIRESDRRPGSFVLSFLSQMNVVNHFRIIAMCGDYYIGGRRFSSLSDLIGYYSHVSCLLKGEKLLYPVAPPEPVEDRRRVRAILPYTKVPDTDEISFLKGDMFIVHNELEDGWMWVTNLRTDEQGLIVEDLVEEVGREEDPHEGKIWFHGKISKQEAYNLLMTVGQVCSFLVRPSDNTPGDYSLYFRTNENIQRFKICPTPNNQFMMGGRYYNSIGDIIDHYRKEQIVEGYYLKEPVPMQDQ
Sequence of RASA1-NC (Homo sapiens) (P20936 176-446): as above

Consider “ErbB4 pY1202 phosphopeptide (18-mer), rhodamine-labelled, for protein microarrays”, for which the Kd was 0.967 µM in the test with HSH2D SH2 domain (human); 10.1 µM in the test with NCK2 SH2 domain (human); 11.9 µM in the test with SHF SH2 domain (human); 9.5 µM in the test with VAV2 SH2 domain (human); 0.662 µM in test [1]; 0.997 µM and 0.965 µM with ABL2 SH2 domain (human). Besides, the Kd with SRC SH2 domain (human) is 0.399 µM; in test [2] it was 0.167 µM and 0.544 µM; in test [3], 8.55 µM; in test [4], 1 µM; in [5] it was 1.26 µM; in [6] it was 0.653 µM. Moreover, the Kd was 0.408 µM and 0.605 µM and 1.53 µM in test [7]; 0.723 µM in the test with ITK SH2 domain (human); 30.9 µM in [8]; 1.72 µM and 1.18 µM in test [9].
Regarding “GRB7 SH2 domain (from UniProt Q14451 431-527) (domain or fragment)”, the Kd in [10] and in [11] was below 0.1 µM throughout.
For the substance …pYLRVAPQSd, the apparent Kd (screen) in the test with SHC1-PTB (Homo sapiens) [12] is 0.317 µM; with SYK-N (Homo sapiens), 0.294 µM; in the test with SHC1 (Homo sapiens) it was 0.777 µM; with BLK (Homo sapiens), 0.5 µM; in the test with GRB2 (Homo sapiens) it was 0.415 µM; in the test with LYN (Homo sapiens) it was 0.171 µM. For the same substance, the apparent Kd (screen) is 0.127 µM with YES1 (Homo sapiens); 0.214 µM with ABL2 (Homo sapiens); 0.5 µM with GRB7 (Homo sapiens); 0.708 µM with RASA1-N (Homo sapiens); 0.5 µM with PIK3R2-N (Homo sapiens); 0.5 µM in the test with ITK (Homo sapiens). For the same substance, the apparent Kd (screen) was 0.805 µM with PIK3R3-NC (Homo sapiens) [13]; 1.11 µM with PIK3R3-NC (Homo sapiens) [14]; 0.5 µM with PIK3R1-NC (Homo sapiens); 0.618 µM with FGR (Homo sapiens); 0.381 µM with SRC (Homo sapiens); 1.03 µM with SHC3 (Homo sapiens). In addition, the apparent Kd (screen) in the test with SHC1-PTB (Homo sapiens) [15] is 0.337 µM; with PLCG2-NC (Homo sapiens), 0.5 µM; with RASA1-NC (Homo sapiens), 0.5 µM; in the test with TEC (Homo sapiens) it was 0.48 µM; with CRK (Homo sapiens) it was 1.07 µM; in the test with CRKL (Homo sapiens) it was 1.34 µM. Also, the apparent Kd (screen) with PIK3R1-N (Homo sapiens) is 0.5 µM; with SYK-NC (Homo sapiens), 0.38 µM.
